B1: TBX5 (parent)
chain: FHEVGTEMIITKAGRRMFPSYKVK
B2: ZER1 (parent)
chain: FDGPEAWGVCEPQREEVEERMWAA

Variants of: B1
Assay: protein stability index of a GFP-peptide fusion (GPS, HEK-293T) (PSI 1-6); higher = more stable
Settings: c terminus: a fixed tail appended
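Further: lentivirally expressed fusions sorted by FACS into six bins by GFP to DsRed ratio, PSI derived from sequencing read proportions per bin multiplied by bin number.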

Protein stability index, by site and new letter:
K12: S 2.51, C 1.31, D 2.57, F 2.76, E 1.83, Y 2.91, L 2.81, A 2.52, N 2.1, Q 1.73, H 1.8, G 2.1, T 1.78, P 2.12
I9: S 2.29, D 2.38, G 2, L 1.79, R 2.68, A 2.38, V 3.05, F 2.52, P 2.75, K 2.48, C 1.5, Q 2.5, N 2.46, M 2.19, E 3.06, T 2.84
K22: S 2.18, N 2.03, R 2.45, P 2.08, C 1.86, M 2.01, V 1.43, G 2.28, Y 2.89, L 2.14, F 1.65, E 1.9, I 2.03, H 1.55, D 2.34, W 1.98, T 1.51
M17: L 2.27, N 1.87, E 2.83, P 1.84, I 1.98, G 1.67, K 2.11, H 1.71, V 1.63, S 2.68, R 2.57, C 2.05, T 1.98, Y 2.44, Q 2.5
F1: D 3.1, N 3.4, S 3.09, M 3.02, C 2.18, Q 3.25, E 3.68, W 2.46, K 3.54, G 3.65, L 2.3, H 2.41, P 3.5, V 2.58, R 2.58
K24: V 1.65, D 2.2, G 2.03, W 1.65, Q 1.33, P 1.55, F 2.83, R 1.51, H 1.59, Y 2.08, T 2.41, E 1.89, S 1.15, A 1.99, C 2.62
T6: S 2.21, W 2.13, Q 2.2, Y 1.56, C 1.52, M 1.37, V 2.07, A 1.93, P 1.3, F 2.76, G 2.9, D 2.25
E7: G 2.98, Q 1.81, H 1.55, D 1.81, V 1.84, K 1.92, N 1.88, P 1.71, W 2.06
P19: K 3.38, F 1.79, T 2.1, W 1.75, Q 1.98, E 2.19, H 1.09, L 1.74, S 2.72, N 1.61, C 2.53
G5: P 2.05, M 1.69, C 2.02, L 1.92, T 1.92, Q 2.13, V 1.23, N 1.5, K 1.88
I10: Y 1.48, V 2.14, M 1.63, T 1.91, N 2.03, D 3.5, C 2.41, L 2.21, Q 2.45, H 2.25, W 1.76, P 2.44, S 3.26, A 1.68, K 2.84
F18: Q 2.58, I 2.07, E 2.34, W 1.8, R 1.76, T 1.92, A 2.76, L 2.51, C 2.61, N 2.07, G 2.25, Y 2.07, K 1.94, H 3.08, M 2.23
M8: D 3.29, C 2.09, E 3.03, A 2.27, G 1.93, V 1.43, F 1.59, T 2.2, R 1.79, K 2.68, Q 2.06, N 2.38, H 2.33
R15: F 1.91, N 2.29, L 1.81, D 2.71, E 1.74, G 1.77, T 2.21, V 1.72, K 1.92, Q 2.2, M 1.59, A 2.18, W 1.53, C 2.63, I 1.83, P 1.87, Y 2.58, S 1.69
V23: L 1.41, N 2.26, P 2.8, Y 1.82, I 1.97, C 1.84, D 2.52, S 2.27, H 2.17, F 2.23, Q 2.09, E 2.5, T 2.14, A 2.35, M 1.78
S20: M 2.67, C 3.1, G 1.93, A 1.89, L 1.86, V 1.97, D 2.18, R 2.61, Q 2.83, W 2.42, E 2.02, K 2.18, N 2.06, H 2.31, T 2.69
V4: I 2.41, M 1.6, Q 1.96, G 2.32, R 1.42, C 2, F 2.65, S 1.95, A 1.97, E 2.23, T 2.34, H 1.85, P 1.86, N 2.05
T11: I 1.19, F 1.71, M 1.53, N 2.46, D 2.13, E 2.36, C 2.44, V 1.76, S 3.49, Y 1.02, R 2.47, K 2.59, A 3.29
Y21: F 2.83, K 2.21, V 1.86, H 3.03, M 1.95, I 1.48, D 2.64, Q 2.7, W 1.87, C 2.21, A 2.66, R 3.16, S 2.61, T 2.42
H2: G 2.48, R 2.53, L 2.07, W 1.57, Q 1.84, M 2.03, V 2.38, P 2.27, D 2.67, F 2.39, K 2.24, I 1.69, Y 2.41, S 2.53
A13: G 1.84, E 2.68, S 1.87, P 1.93, W 1.93, R 2.65, T 1.68, C 2.03, H 2.11, V 2.02, K 2.44, Q 2.65
G14: I 1.66, P 2.86, V 1.62, Y 2.17, N 2.04, E 2, M 1.49, W 1.95, Q 2.17, L 1.71, K 1.68, T 2.42, D 1.48, H 1.73, F 2.41
E3: F 2.39, Q 1.8, V 2.58, N 1.03, D 1.26, S 2.8, T 1.03, C 2.54, R 2.58, I 4.17, H 1.06
R16: S 1.75, G 2.43, K 2.65, P 2.11, D 2.15, T 2.03, N 2.54, V 1.54, I 1.81, M 1.96, Y 1.92, A 1.91, E 2.38, H 2.02

Variants of: B2
Assay: as above
Settings: c terminus: a fixed tail appended

Protein stability index of substitutions, site by site:
F1: A 5.03, C 4.17, D 4.33

— the supplement of paper PMC10567573
